Experimental data reported in patent publication US20200317792A1 (INSMED, published 2020).
Substitutions are numbered along the chain they refer to. Each block holds one binder with its values, some of them ahead of it.

Molecular target: T1, recombinant, soluble his tagged human EGFR (Sino Biologicals) (human, UniProt P00533 25-645)
T1 construct: extracellular domain; also called human epidermal growth factor receptor; not shown: his tag
Test: BLI (ForteBio Octet Red), IgG on protein A tips, 100 nM soluble EGFR;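 note: antibody binding to EGFR read out as on and off rates plus equilibrium affinity, calculated with the Octet instrument software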

binding result: binds
B1: CoDAH design C5 VH/C1 Vκ (antibody, V domains shown)
VH: QVQLQQSGPGLVKPSETLSITCTVSGFSLTNYGVHWVRQSPGKGLEWLGVIWSGGNTDYNTPFTSRLTINKDNSKSQVFFKMNSLQSNDTAVYYCARALTYYDYEFAYWGQGTLVTVSA
VL: DIVLTQSPDFQSVTPKEKVTITCRASQSIGTNIHWYQQKPDQSPKLLIKYASESISGVPSRFSGSGSGTDFTLTINSVESEDIADYYCQQNNNWPTTFGAGTKLELKR
notes: Cross pair; Measured as full length IgG

binding result: binds
B2: CoDAH design C5 VH/C3 Vκ (antibody, V domains shown)
VH: B1 VH
VL: B1 VL with V3L, D9V, F10I, Q11L, T14S, K16G, K18R, I21F, T22S
notes: as for B1

binding result: binds
B3: CoDAH design C5 VH/C2 Vκ (antibody, V domains shown)
VH: B1 VH
VL: B1 VL with D9V, Q11L, K16G
notes: as for B1

binding result: binds
B4: CoDAH design C5 VH/C5 Vκ (antibody, V domains shown)
VH: B1 VH
VL: EIVLTQSPVILSVSPGERVTFSCRASQSIGTNIHWYQQKTDQSPRLLIKYASESISGIPSRFSGSGSGTDFTLTINSVESEDIADYYCQQNNNWPTTFGQGTKLELKR
notes: Pareto optimal design; Measured as full length IgG
